{
  "source": "patent US20030082185A1",
  "molecular_target": "HIV-1 JR-FL gp120 envelope glycoprotein (HIV-1 JR-FL)",
  "test": "cell-based or functional assay",
  "data": [
    {"substance": "CD4-IgG2 (from UniProt P01730 26-204; P01730 26-204) (Fc fusion)", "values": [
      {"measurement": "K (equal to the IC50) for inhibition of HIV-1 env-mediated membrane fusion, RET assay, HeLa-EnvJR-FL and PM1 cells", "result": 0.31, "unit": "µg/mL"}
    ]}
  ]
}
